This is an account of results in patent US20240116985A1 (published 2024).

Starred links: 1 amine or outer side, 2 acyl side, 3 side chain; linkers in the order of their positions; H or OH if unused. Positions of bridges follow the written chain, without caps; N, C: chain ends. Non-standard residues stand in square brackets, D forms with d. Primed or numbered codes have the meaning given here. (Me2NPrPip)GlnR = (S)-2-amino-5-(4-(3-(dimethylamino)propyl)piperazin-1-yl)-5-oxopentanoic acid, CN(C)CCCN1CCN(C(=O)CC[C@H](N[*:1])C(=O)[*:2])CC1; PyrS2″ = (S)-3-amino-1-((pent-4-en-1-yloxy)carbonyl)pyrrolidine-3-carboxylic acid (stapling residue), C=CCCCOC(=O)N1CC[C@@](N[*:1])(C(=O)[*:2])C1; (RDMAPyr)GlnR = (S)-2-amino-5-((R)-3-(dimethylamino)pyrrolidin-1-yl)-5-oxopentanoic acid, CN(C)[C@@H]1CCN(C(=O)CC[C@H](N[*:1])C(=O)[*:2])C1; (4PyPip)GlnR = (S)-2-amino-5-oxo-5-(4-(pyridin-4-yl)piperazin-1-yl)pentanoic acid, O=C(CC[C@H](N[*:1])C(=O)[*:2])N1CCN(c2ccncc2)CC1; TfeGA = (S)-2-amino-3-((carboxymethyl)(2,2,2-trifluoroethyl)amino)propanoic acid, O=C([C@H](CN(CC(=O)[*:3])CC(F)(F)F)N[*:1])[*:2]; (4Pippip)GlnR″ = (S)-5-([1,4'-bipiperidin]-1'-yl)-2-amino-5-oxopentanoic acid, O=C(CC[C@H](N[*:1])C(=O)[*:2])N1CCC(N2CCCCC2)CC1; PyrS2 = (S)-3-amino-1-((pent-4-en-1-yloxy)carbonyl)pyrrolidine-3-carboxylic acid, C=CCCCOC(=O)N1CC[C@@](N[*:1])(C(=O)[*:2])C1; B5(27) = 2-amino-2-(pent-4-en-1-yl)hept-6-enoic acid (two alkene side-chain arms), C=CCCCC(CCCC=C)(N[*:1])C(=O)[*:2]; B5(19) = 2-amino-2-(pent-4-en-1-yl)hept-6-enoic acid (bis(4-pentenyl)glycine), C=CCCCC(CCCC=C)(N[*:1])C(=O)[*:2]; (Ppz)GlnR = (S)-2-amino-5-oxo-5-(piperazin-1-yl)pentanoic acid, O=C(CC[C@H](N[*:1])C(=O)[*:2])N1CCN([*:3])CC1; B5(3) = 2,2-bis(4-pentenyl)glycine (stitching residue), C=CCCCC(CCCC=C)(N[*:1])C(=O)[*:2]; MorphAbu = (S)-2-amino-4-morpholinobutanoic acid, O=C([C@H](CCN1CCOCC1)N[*:1])[*:2]; Phe(2-Cl) = N[C@@H](Cc1ccccc1Cl)C(=O)O; Phe(2-OMe) = COc1ccccc1C[C@H](N)C(=O)O; 1Nal = N[C@@H](Cc1cccc2ccccc12)C(=O)O; 2Nal = N[C@@H](Cc1ccc2ccccc2c1)C(=O)O; Phe(2-F) = N[C@@H](Cc1ccccc1F)C(=O)O; Bta = N[C@@H](Cc1csc2ccccc12)C(=O)O; αAllylPro = C=CC[C@@]1(C(=O)O)CCCN1; tBuAla = CC(C)(C)C[C@H](N)C(=O)O; 3Thi = N[C@@H](Cc1ccsc1)C(=O)O; Cha = N[C@@H](CC1CCCCC1)C(=O)O Some results are limits rather than exact numbers.

One assay has as its target T1, B-cat-Halo (beta-catenin HaloTag fusion expressed in HEK293 cells) (UniProt P35222 1-781, HaloTag labelled with HaloTag NanoBRET 618 Ligand).
T1 sequence (looked up): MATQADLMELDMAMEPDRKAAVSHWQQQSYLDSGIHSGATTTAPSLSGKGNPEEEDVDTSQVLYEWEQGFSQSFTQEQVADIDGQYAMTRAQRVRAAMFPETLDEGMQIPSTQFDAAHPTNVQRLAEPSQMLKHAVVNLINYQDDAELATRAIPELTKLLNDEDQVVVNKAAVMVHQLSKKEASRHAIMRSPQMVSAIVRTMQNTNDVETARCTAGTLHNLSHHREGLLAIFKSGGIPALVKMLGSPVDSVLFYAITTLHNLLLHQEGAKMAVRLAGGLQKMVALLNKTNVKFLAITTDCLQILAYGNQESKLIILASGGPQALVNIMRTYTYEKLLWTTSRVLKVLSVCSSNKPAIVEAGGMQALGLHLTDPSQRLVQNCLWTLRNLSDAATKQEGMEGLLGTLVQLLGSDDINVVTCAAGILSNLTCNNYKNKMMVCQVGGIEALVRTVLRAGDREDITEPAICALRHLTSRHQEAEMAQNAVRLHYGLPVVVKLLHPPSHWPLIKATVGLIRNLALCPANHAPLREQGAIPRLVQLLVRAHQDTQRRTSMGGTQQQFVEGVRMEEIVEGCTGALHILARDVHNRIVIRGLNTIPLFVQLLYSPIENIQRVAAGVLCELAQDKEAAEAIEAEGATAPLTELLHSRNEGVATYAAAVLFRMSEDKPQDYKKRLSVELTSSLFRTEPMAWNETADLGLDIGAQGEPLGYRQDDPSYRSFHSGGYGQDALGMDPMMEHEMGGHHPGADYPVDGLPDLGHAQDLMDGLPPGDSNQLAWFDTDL
The experiment in a line: cell-based or functional assay.
Take Ac-[αAllylPro]D[tBuAla][B5(27)]DDA[MorphAbu]FL[PyrS2][3Thi][Bta]Q-NH2 (staple 1-4, 4-11) [I-1504]: the “NanoBRET Abs IC50” value was over 20 µM.

A further assay deals with T2, B-cat-Halo (beta-catenin HaloTag NanoBRET construct expressed in HEK293 cells) (UniProt P35222 1-781).
T2 sequence (looked up): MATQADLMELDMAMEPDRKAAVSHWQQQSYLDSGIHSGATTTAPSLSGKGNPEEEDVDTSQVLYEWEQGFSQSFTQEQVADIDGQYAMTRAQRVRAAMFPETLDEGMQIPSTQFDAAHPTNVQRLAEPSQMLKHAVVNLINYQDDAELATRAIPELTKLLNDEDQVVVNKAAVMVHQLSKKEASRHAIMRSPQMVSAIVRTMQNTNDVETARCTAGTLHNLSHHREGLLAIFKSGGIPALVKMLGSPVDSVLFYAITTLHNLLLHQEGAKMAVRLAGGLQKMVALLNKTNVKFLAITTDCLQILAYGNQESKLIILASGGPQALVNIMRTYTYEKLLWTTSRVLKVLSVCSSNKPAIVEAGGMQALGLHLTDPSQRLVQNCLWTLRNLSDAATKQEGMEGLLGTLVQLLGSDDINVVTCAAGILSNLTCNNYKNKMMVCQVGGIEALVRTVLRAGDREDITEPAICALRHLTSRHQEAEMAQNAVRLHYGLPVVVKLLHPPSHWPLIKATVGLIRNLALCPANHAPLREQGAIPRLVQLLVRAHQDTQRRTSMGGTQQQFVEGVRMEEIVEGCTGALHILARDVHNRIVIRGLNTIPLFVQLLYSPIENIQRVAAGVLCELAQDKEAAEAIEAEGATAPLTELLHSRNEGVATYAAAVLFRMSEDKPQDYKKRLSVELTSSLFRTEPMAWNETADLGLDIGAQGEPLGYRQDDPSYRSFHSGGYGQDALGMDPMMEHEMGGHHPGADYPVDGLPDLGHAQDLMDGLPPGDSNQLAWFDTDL
Briefly: cell-based or functional assay.
Regarding Ac-[αAllylPro]D[tBuAla][B5(19)]D[TfeGA]AAF[(4PyPip)GlnR][PyrS2″][3Thi][Bta]Q-NH2 (staple 1-4, 4-11) [I-1938], the “NanoBRET Abs IC50” value was found to be 30 µM.

In the case of Ac-[αAllylPro]D[tBuAla][B5(19)]D[TfeGA]AAF[(Ppz)GlnR][PyrS2″][3Thi][Bta]Q-NH2 (staple 1-4, 4-11) [I-1941], the “NanoBRET Abs IC50” value came out at 12.9 µM.

Turning to Ac-[αAllylPro]D[tBuAla][B5(19)]D[TfeGA]AAF[(4Pippip)GlnR″][PyrS2″][3Thi][Bta]Q-NH2 (staple 1-4, 4-11) [I-1940], the “NanoBRET Abs IC50” value came out at 15.4 µM.

Regarding Ac-[αAllylPro]D[tBuAla][B5(19)]D[TfeGA]AAF[(Me2NPrPip)GlnR][PyrS2″][3Thi][Bta]Q-NH2 (staple 1-4, 4-11) [I-1936], the “NanoBRET Abs IC50” value stood at 15.7 µM.

As to Ac-[αAllylPro]D[tBuAla][B5(19)]D[TfeGA]AAF[(RDMAPyr)GlnR][PyrS2″][3Thi][Bta]Q-NH2 (staple 1-4, 4-11) [I-1939], the “NanoBRET Abs IC50” value came out at 20.7 µM.

The target in a further assay is T3, B-cat-Halo (beta-catenin HaloTag fusion construct expressed in HEK293 cells) (UniProt P35222 1-781).
T3 sequence (looked up): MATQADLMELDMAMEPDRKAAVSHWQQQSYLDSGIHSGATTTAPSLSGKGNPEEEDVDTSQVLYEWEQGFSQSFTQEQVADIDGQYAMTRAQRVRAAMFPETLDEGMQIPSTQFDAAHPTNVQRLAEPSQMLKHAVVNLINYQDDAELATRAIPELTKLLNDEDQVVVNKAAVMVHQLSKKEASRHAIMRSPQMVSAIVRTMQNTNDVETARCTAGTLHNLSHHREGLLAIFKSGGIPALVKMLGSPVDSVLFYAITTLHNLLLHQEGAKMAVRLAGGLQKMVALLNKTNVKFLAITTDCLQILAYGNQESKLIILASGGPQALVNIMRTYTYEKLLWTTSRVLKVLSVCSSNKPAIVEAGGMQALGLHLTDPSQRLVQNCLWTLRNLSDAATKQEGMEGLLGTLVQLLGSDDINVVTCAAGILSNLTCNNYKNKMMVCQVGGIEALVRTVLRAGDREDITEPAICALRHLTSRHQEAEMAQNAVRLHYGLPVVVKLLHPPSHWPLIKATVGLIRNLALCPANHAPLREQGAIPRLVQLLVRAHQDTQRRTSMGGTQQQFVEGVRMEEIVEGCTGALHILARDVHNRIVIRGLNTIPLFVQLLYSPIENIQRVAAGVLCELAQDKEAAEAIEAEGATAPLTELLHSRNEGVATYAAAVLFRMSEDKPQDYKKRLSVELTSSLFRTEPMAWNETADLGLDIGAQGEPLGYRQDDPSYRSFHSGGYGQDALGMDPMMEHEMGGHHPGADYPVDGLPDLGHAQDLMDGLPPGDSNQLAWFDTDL
Briefly: cell-based or functional assay.
As for Ac-[αAllylPro]D[Cha][B5(3)]DDAAFS[PyrS2″][Phe(2-OMe)][Bta]S-NH2 (staple 1-4, 4-11) [I-1104], the “NanoBRET Abs IC50” value worked out at 17.7 µM.

Regarding Ac-[αAllylPro]D[tBuAla][B5(3)]DDAAFS[PyrS2″][Cha][Bta]S-NH2 (staple 1-4, 4-11) [I-1106], the “NanoBRET Abs IC50” value is over 20 µM.

With Ac-[αAllylPro]D[2Nal][B5(3)]DDAAFS[PyrS2″][Phe(2-Cl)][Bta]Q-NH2 (staple 1-4, 4-11) [I-1109], the “NanoBRET Abs IC50” value was over 20 µM.

For the molecule Ac-[αAllylPro]D[tBuAla][B5(3)]DDAAFS[PyrS2″][Phe(2-OMe)][Bta]S-NH2 (staple 1-4, 4-11) [I-1103], the “NanoBRET Abs IC50” value stood at 16.7 µM.

Ac-[αAllylPro]D[Cha][B5(3)]DDAAF[Cha][PyrS2″][Phe(2-Cl)][Bta]Q-NH2 (staple 1-4, 4-11) [I-1107]: the “NanoBRET Abs IC50” value came out at 11.8 µM.

Consider Ac-[αAllylPro]D[1Nal][B5(3)]DDAAFL[PyrS2″][Phe(2-Cl)][Bta]Q-NH2 (staple 1-4, 4-11) [I-1110], for which the “NanoBRET Abs IC50” value is over 20 µM.

Ac-[αAllylPro]D[1Nal][B5(3)]DDAAFT[PyrS2″][Phe(2-Cl)][Bta]S-NH2 (staple 1-4, 4-11) [I-1114]: the “NanoBRET Abs IC50” value is over 20 µM.

Turning to Ac-[αAllylPro]D[Cha][B5(3)]DDAAFS[PyrS2″][Phe(2-F)][Bta]S-NH2 (staple 1-4, 4-11) [I-1102], the “NanoBRET Abs IC50” value worked out at 27.2 µM.

Consider Ac-[αAllylPro]D[tBuAla][B5(3)]DDAA[Cha]S[PyrS2″]F[Bta]S-NH2 (staple 1-4, 4-11) [I-1105], for which the “NanoBRET Abs IC50” value was over 20 µM.

For the molecule Ac-[αAllylPro]D[1Nal][B5(3)]DDAAFS[PyrS2″][Phe(2-Cl)][Bta]Q-NH2 (staple 1-4, 4-11) [I-1108], the “NanoBRET Abs IC50” value was over 20 µM.

For Ac-[αAllylPro]D[2Nal][B5(3)]DDAAFL[PyrS2″][2C1F][Bta]Q-NH2 (staple 1-4, 4-11) [I-1111], the “NanoBRET Abs IC50” value is over 20 µM.
